This passage reports IC50 results from the Immune Epitope Database (IEDB).

In experiment [1] the target is HLA-A*68:02. The experiment can be described thus: IEDB peptide-MHC binding, purified MHC/competitive/radioactivity; ≥ and ≤ were set here for values at or beyond the usual limits of such assays.
Experiment [2] has as its target HLA-A*02:01. Described as above. The note with it: source organism: Vaccinia virus WR.
The next experiment deals with HLA-A*02:03. The description is as above.
Experiment [3] deals with HLA-A*02:06. Put plainly: IEDB peptide-MHC binding, cellular MHC/competitive/fluorescence; ≥ and ≤ were set here for values at or beyond the usual limits of such assays.
The next experiment deals with HLA-A*02:02. The description is as above.
The target in experiment [4] is HLA-A*02:01. The description is as above.
Experiment [5] deals with HLA-A*02:06. The experiment can be described thus: IEDB peptide-MHC binding, purified MHC/competitive/radioactivity; ≥ and ≤ were set here for values at or beyond the usual limits of such assays. The note with it: source organism: Vaccinia virus WR.
For experiment [6], the target named is HLA-A*68:02. The experiment can be described thus: IEDB peptide-MHC binding, cellular MHC/competitive/fluorescence; ≥ and ≤ were set here for values at or beyond the usual limits of such assays. The note with it: source organism: Vaccinia virus WR.
The mark [7] stands for this setting: source organism: Vaccinia virus WR.
Where [8] appears, read: source organism: Influenza A virus.

For AVTLNRIKI, the IC50 – broadly, the concentration needed to halve the response being measured – with HLA-A*68:02 [1] (setting [7]) was determined as 4.95 µM; in the experiment with HLA-A*02:01 [2], 1.15 µM; in the experiment with HLA-A*02:03 (setting [7]), 3.34 µM; with HLA-A*02:06 [3] (setting [7]), 7.61 µM; with HLA-A*02:02 (setting [7]), 10.8 µM.

Take CIVAAVIIM: the IC50 with HLA-A*68:02 [1] (setting [7]) was 4.44 µM; with HLA-A*02:01 [2], 1.57 µM; in the experiment with HLA-A*02:03 (setting [7]), 1.42 µM; with HLA-A*02:06 [3] (setting [7]), 32.7 µM; with HLA-A*02:02 (setting [7]), 14.3 µM.

As for DAMIHKTYI, the half-inhibitory concentration (IC50) with HLA-A*68:02 [1] (setting [7]) worked out at 0.087 µM; with HLA-A*02:03 (setting [7]), 1.52 µM; with HLA-A*02:06 [3] (setting [7]), 9.56 µM; with HLA-A*02:01 [4] (setting [7]) it was 8.17 µM; in the experiment with HLA-A*02:02 (setting [7]) it was 5.42 µM.

As to DINVIGLIV, the IC50 came to 2.27 µM with HLA-A*68:02 [1] (setting [7]); 0.387 µM in the experiment with HLA-A*02:01 [2]; 4.04 µM with HLA-A*02:03 (setting [7]); 5.53 µM with HLA-A*02:06 [3] (setting [7]); 9.8 µM in the experiment with HLA-A*02:02 (setting [7]).

As for DITNILGGV, the IC50 in the experiment with HLA-A*68:02 [1] (setting [7]) is 0.012 µM; in the experiment with HLA-A*02:03 (setting [7]), 1.64 µM; with HLA-A*02:06 [3] (setting [7]) it was 7.43 µM; with HLA-A*02:01 [4] (setting [7]) it was 11.4 µM; with HLA-A*02:02 (setting [7]), 9.88 µM.

For the sequence DITNILGGVL, the IC50 in the experiment with HLA-A*68:02 [1] (setting [7]) came out at 0.515 µM; with HLA-A*02:03 (setting [7]), 3.68 µM; with HLA-A*02:06 [3] (setting [7]) it was 19 µM; with HLA-A*02:01 [4] (setting [7]), 16.2 µM; with HLA-A*02:02 (setting [7]), 12.3 µM.

As to EAFETQSGAL, the IC50 with HLA-A*68:02 [1] (setting [7]) worked out at 0.068 µM; in the experiment with HLA-A*02:03 (setting [7]) it was 0.995 µM; in the experiment with HLA-A*02:06 [3] (setting [7]) it was 15 µM; in the experiment with HLA-A*02:01 [4] (setting [7]) it was 14.2 µM; with HLA-A*02:02 (setting [7]) it was 8.56 µM.

In the case of EIRGVLPEET, the IC50 in the experiment with HLA-A*68:02 [1] (setting [7]) was determined as 4.54 µM; in the experiment with HLA-A*02:03 (setting [7]) it was 4.87 µM; with HLA-A*02:06 [3] (setting [7]), 20.1 µM; in the experiment with HLA-A*02:01 [4] (setting [7]), 30.5 µM; with HLA-A*02:02 (setting [7]), 9.6 µM.

Consider ETMYLTMKA, for which the half-inhibitory concentration (IC50) stood at 0.00064 µM in the experiment with HLA-A*68:02 [1] (setting [7]); 0.942 µM in the experiment with HLA-A*02:03 (setting [7]); 12.7 µM in the experiment with HLA-A*02:06 [3] (setting [7]); 19.1 µM in the experiment with HLA-A*02:01 [4] (setting [7]); 7.85 µM in the experiment with HLA-A*02:02 (setting [7]).

Consider EVGTNFGTI, for which the IC50 in the experiment with HLA-A*68:02 [1] (setting [7]) was 0.069 µM; with HLA-A*02:03 (setting [7]), 1.94 µM; with HLA-A*02:06 [3] (setting [7]), 19.9 µM; in the experiment with HLA-A*02:01 [4] (setting [7]) it was 20.1 µM; with HLA-A*02:02 (setting [7]), 5.76 µM.

On to EVLMSPCRM, for which the IC50 with HLA-A*68:02 [1] (setting [7]) was 1.52 µM; with HLA-A*02:03 (setting [7]) it was 0.651 µM; with HLA-A*02:06 [3] (setting [7]), 11.8 µM; with HLA-A*02:01 [4] (setting [7]) it was 27.9 µM; in the experiment with HLA-A*02:02 (setting [7]), 6.83 µM.

Consider EVMPEKRNVV, for which the IC50 with HLA-A*68:02 [1] (setting [7]) stood at 0.107 µM; in the experiment with HLA-A*02:03 (setting [7]), 2.62 µM; in the experiment with HLA-A*02:06 [3] (setting [7]), 12.1 µM; with HLA-A*02:01 [4] (setting [7]), 44.3 µM; with HLA-A*02:02 (setting [7]), 20.2 µM.

For the sequence FAFIDFSKST, the IC50 was determined as 1.41 µM with HLA-A*02:06 [5]; 2.41 µM with HLA-A*02:03 (setting [7]); 5.06 µM in the experiment with HLA-A*68:02 [6]; 7.72 µM with HLA-A*02:01 [4] (setting [7]); 11.8 µM in the experiment with HLA-A*02:02 (setting [7]).

For FISYNRHNDT, the IC50 amounted to 2.28 µM in the experiment with HLA-A*68:02 [1] (setting [7]); 4.93 µM with HLA-A*02:03 (setting [7]); 11.2 µM in the experiment with HLA-A*02:06 [3] (setting [7]); 36.3 µM with HLA-A*02:01 [4] (setting [7]); 6.84 µM with HLA-A*02:02 (setting [7]).

For the sequence GADINLMPI, the IC50 in the experiment with HLA-A*68:02 [1] (setting [8]) came to 4.41 µM; in the experiment with HLA-A*02:03 (setting [8]), 3.3 µM; with HLA-A*02:06 [3] (setting [8]), 5.77 µM; with HLA-A*02:01 [4] (setting [8]) it was 11.9 µM; in the experiment with HLA-A*02:02 (setting [8]), 7.41 µM.

Regarding GALYLGHSA, the IC50 is 0.792 µM with HLA-A*02:06 [5]; 1.9 µM in the experiment with HLA-A*02:03 (setting [7]); 12.8 µM in the experiment with HLA-A*68:02 [6]; 22.6 µM with HLA-A*02:01 [4] (setting [7]); 7.5 µM with HLA-A*02:02 (setting [7]).

Consider GLIVILFIM, for which the IC50 with HLA-A*68:02 [1] (setting [7]) came out at 1.38 µM; with HLA-A*02:01 [2] it was 1.66 µM; with HLA-A*02:03 (setting [7]) it was 1.39 µM; in the experiment with HLA-A*02:06 [3] (setting [7]) it was 5.29 µM; in the experiment with HLA-A*02:02 (setting [7]), 13.4 µM.

For ITPNNLNKI, the IC50 is 0.409 µM with HLA-A*02:06 [5]; 0.876 µM with HLA-A*02:03 (setting [7]); 13.4 µM with HLA-A*68:02 [6]; 33.5 µM with HLA-A*02:01 [4] (setting [7]); 14.6 µM in the experiment with HLA-A*02:02 (setting [7]).
